Data taken from patent US20180263919A1, “THERAPEUTIC ELECTROSPUN FIBER COMPOSITIONS” (The Johns Hopkins University, priority 2006, published 2018).

Experiments:
[1] = in vivo, iv; cited from earlier work
[2] = rat, in vivo; cited from earlier work
[3] = tested on: PC12 cells; conditions: Thoenen and Bard; cited from earlier work
[4] = tested on: PC12 cells; experiment: Bioactivity of released NGF: differentiation of PC12 cells into neurons; type: cell-based, rat; conditions: positive control, fresh NGF at 400 ng/ml

Substance | biologic half-life [1] [minutes] | elimination half-life [2] | threshold for induction of PC12 cell differentiation [3] | percentage of PC12 cells induced to differentiate [4]
bFGF: basic fibroblast growth factor | 3 |  |  | 
NGF: Recombinant human n-nerve growth factor (NGF) from R&D Systems |  | less than 5 hours | around 0.5 ng/ml | 20-55%
PDGF | 2 |  |  | 
